Where “and” joins values, the source holds several entries; their conditions need not be identical. Identical values can stand only once.

The test system of test [1] is endogenously generated APC in normal plasma. In words: Thrombin generation assay in normal plasma. As to conditions: 200 nM DrKIn-I, 100 nM TM, 2 μg/ml heparan sulfate. Type of test: biochemical. How it is done:
Thrombin generation in normal (A) and protein C-deficient (B) plasma. Experiments were performed in the presence of heparan sulfate (2 μg/ml). Solid lines represent thrombin generation in the presence of 100 nM thrombomodulin (TM) and varying concentrations of DrKIn-I (●, 0 nM; ▪, 40 nM; ▴, 80 nM; ◯, 200 nM). Dashed lines represent thrombin generation in the absence of TM and DrKIn-I.
Briefly, 80 μl of either normal plasma, protein C-deficient plasma, FVIII-deficient plasma or FIX deficient plasma containing 2 μM corn trypsin inhibitor, 2 μg/ml heparan sulfate (four disaccharide units long), 30 μM DOPC/DOPS/DOPE (60:20:20) and 100 nM recombinant TM was incubated with 20 μl of 500-fold diluted TF solution (Innovin; Dade Behring) in the absence or presence of the indicated concentrations of DrKIn-I. Following incubation for 3 minutes at 37° C., thrombin generation was initiated by the dispensation of 20 μl of 2.5 mM fluorogenic substrate (Z-Gly-Gly-Arg-AMC.HCl) dissolved in 0.15 M NaCl, 60 mg/ml BSA and 100 mM CaCl2. Measurements were taken at 1 minute intervals on a SpectraMax M2^e Microplate Reader using an excitation wavelength of 360 nm and an emission wavelength of 460 nm. In some assays, experiments were performed in the absence of thrombomodulin. Results were evaluated using the Technothrombin TGA software (Technoclone).

In another test the target is APC (Homo sapiens, UniProt P04070). As to the kind of experiment: Kinetic analysis of APC inhibition (Morrison tight binding equation). Type of test: biochemical. Also noted: purchased Haematologic Technologies. How it is done:
Initial velocities of APC (20 nM) were measured in the presence of increasing concentrations of DrKIn-I (0-80 nM) using different concentrations of Spectrozyme PCa (●, 0.4 mM; ▪, 0.2 mM; ▴, 0.1 mM; ▾, 0.05 mM; ♦, 0.025 mM) as substrate.
APC was incubated with heparin and increasing concentrations of DrKIn-I for 3 minutes. The initial reaction velocities (mOD405 nm/min) were then determined at 37° C. after the addition of varying concentrations of Spectrozyme PCa. The final concentrations were as follows: APC (20 nM), heparin (0.1 U/ml), DrKIn-I (0-80 nM) and Spectrozyme PCa (0.025-0.4 mM). Initial velocities were plotted against inhibitor concentrations for each substrate concentration tested and the plots were subjected to nonlinear least squares regression using GraphPad Prism software. The inhibition constant (Ki) of DrKIn-I was determined by global fitting to Morrison's tight binding equation as shown below, Vs=(Vo/2Et){[Ki′+It−Et)^2+4Ki′Et]^1/2−(Ki′+It−Et) (Eq. 1) where Vs is the steady state velocity in the presence of inhibitor, while Vo is the velocity in the absence of inhibitor. It is the total inhibitor concentration and Et is the total enzyme concentration. Ki′ is the apparent inhibition constant. […] (vii) Selectivity Profile of DrKIn-I

Chain of APC (P04070 212-450 limits assumed): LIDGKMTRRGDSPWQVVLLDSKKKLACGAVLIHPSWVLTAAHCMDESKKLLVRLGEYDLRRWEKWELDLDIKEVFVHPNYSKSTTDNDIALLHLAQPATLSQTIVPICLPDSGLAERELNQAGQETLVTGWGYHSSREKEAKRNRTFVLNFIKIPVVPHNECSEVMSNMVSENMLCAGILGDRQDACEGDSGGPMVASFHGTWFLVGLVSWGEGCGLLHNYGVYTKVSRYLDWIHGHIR
Chain of APC (P04070 43-197 limits assumed): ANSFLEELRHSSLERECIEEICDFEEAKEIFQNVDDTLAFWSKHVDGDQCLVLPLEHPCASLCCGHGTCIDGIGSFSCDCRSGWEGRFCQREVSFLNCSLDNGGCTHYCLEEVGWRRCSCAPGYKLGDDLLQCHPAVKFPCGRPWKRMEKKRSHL

As to DrKIn-I (CGGNDNNFETRKKCRQTCGAPRKGRPT), the thrombin generation result in test [1] is given as “thrombin generation reached that observed in the absence of APC activity”. In the test with APC (0.1 U/ml heparin, APC 20 nM, read-out: inhibition constant (Ki)), the Ki (usually a measure of affinity in units of concentration, obtained from inhibition or displacement) is 0.053 nM and ~0.053 nM and ~0.05 nM. The “ratio of Ki for FXIa and plasmin to Ki for APC” value with APC (in the presence of heparin) is recorded as “at least 25 fold”.

These data come from patent US9206246B2, “Heparin/heparan sulfate-dependent inhibitors of activated protein C and uses thereof in treating hemophilic disorders” (Academia Sinica, priority 2012, dated 2015).
